The record followed here is the nanobody polyreactivity screen of Harvey et al. (2022).

This data set can be described thus: yeast display, Sf9 membrane polyspecificity reagent, FACS + sequencing; frameworks hold sequencing errors. The procedure, abridged:
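A synthetic nanobody library was expressed on Saccharomyces cerevisiae BJ5465 by galactose induction for 36–48 hours. The library was stained for 1 hour at 4 °C with 10% biotinylated, detergent-solubilized Sf9 membrane reagent and enriched with streptavidin microbeads before FACS. Low and high (top ~1%) gates were set on anti-HA fluorescence for expression and streptavidin fluorescence for reagent binding, and each polyreactivity label reflects the gate of origin.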
Take “QVQLVESGGGLVQAGGSLRLSCAASGFIFRGYAMGWYRQAPGKERELVAAISRSGGSTYYADSVKGRFTISRDNAKNTVYLQMNSLKPEDTAVYYCAARSFYSKGYDYWGQGTQVTVSS”: the “polyreactivity (PSR sort gate)” value is “high polyreactivity”. In the case of “QVQLVESGGGLVQAGGSLRLSCAASGFIFRGYAMGWYRQAPGKERELVAAITYSTGNTYYADSVKGRFTISRDNAKNTVYLQMNSLKPEDTAVYYCNKVVRKFIGGYVYYSGGYWGQGTQVTVSS”, the “polyreactivity (PSR sort gate)” value was “low polyreactivity”. “QVQLVESGGGLVQAGGSLRLSCAASGFIFRKYTMGWYRQAPGKERELVATIDSSGGSTYYADSVKGRFTISRDNAKNTVYLQMNSLKPEDTAVYYCNADLRELSPWYWYSGEMDYWGQGTQVTVSS”: the “polyreactivity (PSR sort gate)” value is listed as “low polyreactivity”. Consider “QVQLVESGGGLVQAGGSLRLSCAASGFIFRLNAMGWYTQAPGKERELVATITSSGSTSYADSVKGRFTISRDNAKNTVYLQMNSLKPEDTAVYYCAARRLRYRYPLYSRNYWGQGTQVTVSS”, for which the “polyreactivity (PSR sort gate)” value was “high polyreactivity”. “QVQLVESGGGLVQAGGSLRLSCAASGFIFRLYALGWYRQAPGKERELVAAIRSAGSTYYADSVKGRFTISRDNAKNTVYLQMNSLKPEDTPVYYCAARSGHTYYFIGNYWGQGTQVTVSS”: the “polyreactivity (PSR sort gate)” value is given as “high polyreactivity”.

With “QVQLVESGGGLVQAGGSLRLSCAASGFIFRLYAMGLYRQAPGKERELVAAITTSGDSTYYADSVKGRFTISRDNSKNTFYLQMNCLKPEDTAVYYCAARYYYPPKRGYWGQGSQVTVSS”, the “polyreactivity (PSR sort gate)” value is listed as “high polyreactivity”. With “QVQLVESGGGLVQAGGSLRLSCAASGFIFRPNAMGWYRQAPGKERELVAAITGRSGSTNYADSVKGRFTISRDNAKNTVYLQMNSLKPEDTAVYYCAARVWQGYYPGYYYWGQGTQVTVSS”, the “polyreactivity (PSR sort gate)” value is recorded as “high polyreactivity”. In the case of “QVQLVESGGGLVQAGGSLRLSCAASGFIFRPYTMGWYRQAPGKERELVAAITSGGSTYYADSVKGRFTISRDNAKNTVYLQMNSLKPEDTAVYYCAARYQLYRRGYDYWGQGTQVTVSS”, the “polyreactivity (PSR sort gate)” value is on record as “high polyreactivity”. In the case of “QVQLVESGGGLVQAGGSLRLSCAASGFIFRRNAMGWYRQAPGKERELVATISSGVGTYYADSVKGRFTISRDNAKNTVYLQMNSLKPEDTAVYYCATLVHYLYTGYRAYYSYRLDYWGQGTQVTVSS”, the “polyreactivity (PSR sort gate)” value is given as “high polyreactivity”. With “QVQLVESGGGLVQAGGSLRLSCAASGFIFRRNVMGWYRQAPGKERELVAAISRSGASTYYADSVKGRFTISRDNAKNTVYLQMNSLKPEDTAVYYCNKRDKVTYSYDYWGQGTQVTVSS” the entry was “high polyreactivity”.

As for “QVQLVESGGGLVQAGGSLRLSCAASGFIFRRYAMGWYRPAPGKVWELVAAITLRGGSTYYADSVKGRFTISRDNAKNTVYLQMNSLKPEATAVYYCAAGVRGQHDGYYWGQGTQETVSS”, the “polyreactivity (PSR sort gate)” value is given as “high polyreactivity”. As to “QVQLVESGGGLVQAGGSLRLSCAASGFIFRRYAMGWYRQAPGKERELVAAISGSGGRTYYADSVKGRFTISRDNAKNTVYLQMNSLKPEDTAVYYCAATYQYLKSGYYWGQGTQVTVSS”, the “polyreactivity (PSR sort gate)” value is “high polyreactivity”. “QVQLVESGGGLVQAGGSLRLSCAASGFIFRRYAMGWYRQAPGKERELVAAITWSGGSTYYADSVKGRFTISRDNAKNTVYLQMNSLKPEDTAVYYCNRASLPSVWGYDYWGQGTQVTVSS”: the “polyreactivity (PSR sort gate)” value is listed as “high polyreactivity”. For “QVQLVESGGGLVQAGGSLRLSCAASGFIFRRYAMGWYRQAPGKERELVAIITSGVRTYYADSVKGRFTISRDNAKNTVYLQMNSLKPEDTAVYYCASRVKDYPEYDYWGQGTQVTVSS”, the “polyreactivity (PSR sort gate)” value was “low polyreactivity”.

For “QVQLVESGGGLVQAGGSLRLSCAASGFIFRRYAMGWYRQAPGKERELVAVIRSSGGSTYYADSVKGRFTISRDNAKNTVYLQMNSLKPEDTAVYYCAAVDARSGGYYWTLRYYYWGQGTQVTVSS”, the “polyreactivity (PSR sort gate)” value is reported as “high polyreactivity”. The same measure for “QVQLVESGGGLVQAGGSLRLSCAASGFIFRRYTMGWYRQAPGKERELVAAISSRGGSTYYADSVKGRFTISRDNAKNTVYLQMNSLKPEDTAVYYCNAGLGVRRRYDYWGQGTQVTVSS”: “high polyreactivity”.
